Measured values taken from patent publication US20240117030A1 (Pfizer, published 2024).

Assays:
Assay in all cases: cell-based or functional assay
recombinant human IL-13 [1] = target: recombinant human IL-13 (human, UniProt P35225 35-146)
recombinant human IL-4 = target: T1, recombinant human IL-4 (human, UniProt P05112 25-153)
T1 sequence (looked up): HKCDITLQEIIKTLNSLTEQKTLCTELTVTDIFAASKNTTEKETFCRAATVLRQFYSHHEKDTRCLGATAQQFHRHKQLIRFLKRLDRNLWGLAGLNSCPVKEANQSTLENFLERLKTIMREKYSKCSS

[2] = target: recombinant human TSLP (glycosylated long form) (human, UniProt Q969D9 29-159)
recombinant human IL-13 [3] = target: recombinant human IL-13 (human, UniProt P35225 35-146); remark: listed apart in the source

B1: IL13-1307 (antibody, human IgG1, kappa, V domains shown)
VH: EVQLVESGGGLVQPGGSLRLSCAASGFTFSSYAMSWVRQAPGKGLEWVASISSGDTTYYPDSVKGRFTISRDNAKNSLYLQMNSLRAEDTAVYYCARLDGYYFGFPYWGQGTLVTVSS
VL: DIQMTQSPSSLSASVGDRVTITCKASESVDHSGSSLMHWYQQKPGKAPKLLIYRASNLESGVPSRFSGSGSGTDFTLTISSLQPEDFATYYCQQSNEDPWTFGGGTKVEIKR
Recombinant human IL-13 [1]
  IC50 (median), Monocyte CD23 expression: 306 pM
  IC50 (median), STAT6 phosphorylation in HT-29 cells: 140 pM

B2: IL413TSLP-0008 (other)
heavy: EVQLVESGGGLVQPGGSLRLSCAASGFTFSSYAMSWVRQAPGKGLEWVASISSGDTTYYPDSVKGRFTISRDNAKNSLYLQMNSLRAEDTAVYYCARNEGYYFGLTLWGQGTLVTVSSASTKGPSVFPKAPSSKSTSGGTAALGCLVKDYFPEPVTVSWNSGALTSGVHTFPAVLQSSGLYSLSSSVTVPSSSLGTQTYICNVNHKPSNTKVDKKVEPKSCDKTHTCPPCPAPEAAGAPSVFLFPPKPKDTLMISRTPEVTCVVVDVSHEDPEVKFNWYVDGVEVHNAKTKPREEQYNSTYRVVSVLTVLHQDWLNGKEYKCKVSNKALPAPIEKTISKAKGQPREPQVCTLPPSREEMTKNQVSLWCLVKGFYPSDIAVEWESNGQPENNYKTTPPVLDSDGSFFLYSKLTVDKSRWQQGNVFSCSVMHEALHNHYTQKSLSLSPGK
chain 1: SYVLTQPPSVSVAPGQTARITCGGNNLGSKSVHWYQQKPGQAPVLVVYDDSDRPSWIPERFSGSNSGNTATLTISRGEAGDEADYYCQVWDSSSDHVVFGGGTKLTVLASTKGPSVFPLAPSSKSTSGGTAALGCLVKDYFPEPVTVSWNSGALTSGVHTFPAVLQSSGLYSLSSVVTVPSSSLGTQTYICNVNHKPSNTKVDKKVEPKSCGGGGSEVTLRESGPALVKPTQTLTLTCTFSGFSLSNFGEGLSWIRQPPGKGLEWLAHIYWDDDKRYNPSLKSRLTISKDTSRNQVVLTMTNMDPVDTATYYCARRETVFYWYFDVWGQGTTVTVSSASTKGPSVFPEAPSSKSTSGGTAALGCLVKDYFPEPVTVSWNSGALTSGVHTFPAVLQSSGLYSLGSVVTVPSSSLGTQTYICNVNHKPSNTKVDKKVEPKSCDKTHTCPPCPAPEAAGAPSVFLFPPKPKDTLMISRTPEVTCVVVDVSHEDPEVKFNWYVDGVEVHNAKTKPREEQYNSTYRVVSVLTVLHQDWLNGKEYKCKVSNKALPAPIEKTISKAKGQPREPQVYTLPPCREEMTKNQVSLSCAVKGFYPSDIAVEWESNGQPENNYKTTPPVLDSDGSFFLVSKLTVDKSRWQQGNVFSCSVMHEALHNHYTQKSLSLSPGK
light 1: DIQMTQSPSSLSASVGDRVTITCKASESVDHFGWSLVHWYQQKPGKAPKLLIYRASNLESGVPSRFSGSGSGTDFTLTISSLQPEDFATYYCQQSNEDPWTFGGGTKVEIKRTVAAPSVFIFPPSDEQLKSGTASVSCLLNNFYPREAKVQWKVDNALQSGNSQESVTEQDSKDSTYSLDSTLTLSKADYEKHKVYACEVTHQGLSSPVTKSFNRGEC
light 2: DIQMTQSPSSLSASVGDRVTITCKASQSVDEDGDSYMNWYQQKPGKAPKLLIYAASNLESGVPSRFSGSGSGTDFTLTISSLQPEDFATYYCQQSNEDPPTFGGGTKVEIKRTVAAPSVFIFPPSDEQLKSGTASVSCLLNNFYPREAKVQWKVDNALQSGNSQESVTEQDSKDSTYSLKSTLTLSKADYEKHKVYACEVTHQGLSSPVTKSFNRGEC
chain 2: QMQLVESGGGVVQPGRSLRLSCAASGFTFRTYGMHWVRQAPGKGLEWVAVIWYDGSNKHYADSVKGRFTITRDNSKNTLNLQMNSLRAEDTAVYYCARAPQWELVHEAFDIWGQGTMVTVSSGQPKAAPSVTLFPPSSEELQANKATLVCLISDFYPGAVTVAWKADSSPVKAGVETTTPSKQSNNKYAASSYLSLTPEQWKSHRSYSCQVTHEGSTVEKTVAPTECS
Recombinant human IL-4
  a-hIL-4 bioassay IC50, pM): 9.07 pM
[2]
  a-TSLP TARC bioassay (IC50; pM): 17.7 pM
Recombinant human IL-13 [3]
  a-hIL-13 bioassay (IC50, pM): 10.6 pM
